Here are results for eight molecules from paper PMC4919518.

One series deals with T1, RsAgo delN20 (Rhodobacter sphaeroides (ATCC 17025D-5), UniProt A4WYU7 21-777, del1-20).
T1 sequence: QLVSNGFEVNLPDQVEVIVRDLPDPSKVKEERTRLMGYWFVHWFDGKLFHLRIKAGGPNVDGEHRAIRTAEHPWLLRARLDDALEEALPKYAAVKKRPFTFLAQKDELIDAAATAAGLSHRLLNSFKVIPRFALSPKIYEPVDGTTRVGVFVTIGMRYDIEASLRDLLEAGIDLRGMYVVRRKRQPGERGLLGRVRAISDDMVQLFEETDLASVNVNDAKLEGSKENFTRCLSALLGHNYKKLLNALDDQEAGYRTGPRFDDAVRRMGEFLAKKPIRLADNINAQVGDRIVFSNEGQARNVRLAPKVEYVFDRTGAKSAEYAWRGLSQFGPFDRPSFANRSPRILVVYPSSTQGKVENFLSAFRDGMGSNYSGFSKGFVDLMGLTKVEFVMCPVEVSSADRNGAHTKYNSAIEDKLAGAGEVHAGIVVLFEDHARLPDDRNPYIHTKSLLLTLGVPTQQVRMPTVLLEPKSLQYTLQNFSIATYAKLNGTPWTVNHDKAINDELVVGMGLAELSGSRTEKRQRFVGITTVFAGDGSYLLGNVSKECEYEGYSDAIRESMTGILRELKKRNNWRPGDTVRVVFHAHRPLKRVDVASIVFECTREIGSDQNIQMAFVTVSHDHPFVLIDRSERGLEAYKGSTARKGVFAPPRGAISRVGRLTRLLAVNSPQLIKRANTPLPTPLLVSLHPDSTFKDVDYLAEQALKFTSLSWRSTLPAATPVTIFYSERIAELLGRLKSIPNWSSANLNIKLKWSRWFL
In words: X-ray crystal structure (2 A); Mg2+ at guide phosphates 1 and 3 and L777 carboxylate; FP: 20 mM HEPES-KOH pH 7.5, 200 mM NaCl, 5 mM MgCl2, 0.01 mg/ml E. coli total tRNA, 0.01% NP-40, 10 pM probe, 25 C; EMSA: 20 mM HEPES-KOH pH 7.5, 200 mM NaCl, 5. (In general: In EMSA bound probe runs differently from free probe, usually more slowly.)

A further series concerns the target T2, RsAgo delP45-W63 (Rhodobacter sphaeroides (ATCC 17025D-5), UniProt A4WYU7 1-777, del45-63).
T2 sequence: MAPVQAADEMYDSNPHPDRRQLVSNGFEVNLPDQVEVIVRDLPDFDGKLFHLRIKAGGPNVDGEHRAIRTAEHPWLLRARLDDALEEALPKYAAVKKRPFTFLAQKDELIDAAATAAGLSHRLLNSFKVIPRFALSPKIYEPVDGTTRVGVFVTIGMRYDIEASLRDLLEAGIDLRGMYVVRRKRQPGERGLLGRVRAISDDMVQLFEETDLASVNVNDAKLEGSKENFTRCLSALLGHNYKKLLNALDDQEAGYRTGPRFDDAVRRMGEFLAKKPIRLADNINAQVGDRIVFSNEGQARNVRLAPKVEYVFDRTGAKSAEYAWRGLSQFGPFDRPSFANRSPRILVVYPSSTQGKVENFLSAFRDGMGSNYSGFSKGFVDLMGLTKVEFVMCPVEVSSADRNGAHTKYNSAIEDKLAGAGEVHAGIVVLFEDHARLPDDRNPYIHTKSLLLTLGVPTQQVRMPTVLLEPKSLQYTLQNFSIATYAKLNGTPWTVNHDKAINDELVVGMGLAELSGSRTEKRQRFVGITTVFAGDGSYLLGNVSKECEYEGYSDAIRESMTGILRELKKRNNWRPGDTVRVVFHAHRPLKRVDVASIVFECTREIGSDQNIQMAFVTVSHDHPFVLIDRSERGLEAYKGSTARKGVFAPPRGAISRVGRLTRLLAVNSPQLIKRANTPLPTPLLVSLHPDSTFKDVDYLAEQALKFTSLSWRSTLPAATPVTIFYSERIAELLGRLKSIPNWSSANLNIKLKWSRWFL
In words: EMSA; RsAgo-guide RNA complex titrated on target DNA; FP: 20 mM HEPES-KOH pH 7.5, 200 mM NaCl, 5 mM MgCl2, 0.01 mg/ml E. coli total tRNA, 0.01% NP-40, 10 pM probe, 25 C; EMSA: 20 mM HEPES-KOH pH 7.5, 200 mM NaCl, 5.

For series [1], the target named is T3, RsAgo WT (Rhodobacter sphaeroides (ATCC 17025D-5), UniProt A4WYU7 1-777).
T3 sequence: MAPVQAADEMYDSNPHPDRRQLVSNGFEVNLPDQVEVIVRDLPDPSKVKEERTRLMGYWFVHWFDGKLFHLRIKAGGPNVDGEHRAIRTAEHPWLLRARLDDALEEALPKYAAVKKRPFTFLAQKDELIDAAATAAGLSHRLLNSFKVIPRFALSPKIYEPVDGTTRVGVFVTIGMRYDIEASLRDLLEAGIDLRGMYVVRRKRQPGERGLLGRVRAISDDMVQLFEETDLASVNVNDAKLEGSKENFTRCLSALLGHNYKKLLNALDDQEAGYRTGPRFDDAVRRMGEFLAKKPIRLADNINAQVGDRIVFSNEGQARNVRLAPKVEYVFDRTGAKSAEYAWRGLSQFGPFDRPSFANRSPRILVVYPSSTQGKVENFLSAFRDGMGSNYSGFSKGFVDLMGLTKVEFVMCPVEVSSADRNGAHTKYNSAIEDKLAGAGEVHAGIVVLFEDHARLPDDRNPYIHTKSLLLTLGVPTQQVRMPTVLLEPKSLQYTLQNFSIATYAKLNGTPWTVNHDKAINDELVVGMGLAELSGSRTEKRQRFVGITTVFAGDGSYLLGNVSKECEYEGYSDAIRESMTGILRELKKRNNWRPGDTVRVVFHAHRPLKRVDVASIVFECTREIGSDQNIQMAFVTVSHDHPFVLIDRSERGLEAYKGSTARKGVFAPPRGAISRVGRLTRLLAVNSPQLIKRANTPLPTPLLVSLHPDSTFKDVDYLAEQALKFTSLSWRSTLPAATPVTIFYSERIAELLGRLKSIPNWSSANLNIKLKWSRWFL
In words: EMSA; 5 mM Mg2+; FP: 20 mM HEPES-KOH pH 7.5, 200 mM NaCl, 5 mM MgCl2, 0.01 mg/ml E. coli total tRNA, 0.01% NP-40, 10 pM probe, 25 C; EMSA: 20 mM HEPES-KOH pH 7.5, 200 mM NaCl, 5.

For series [2], the target named is T3, RsAgo WT. Briefly: fluorescence polarization; 5 mM Mg2+; FP: 20 mM HEPES-KOH pH 7.5, 200 mM NaCl, 5 mM MgCl2, 0.01 mg/ml E. coli total tRNA, 0.01% NP-40, 10 pM probe, 25 C; EMSA: 20 mM HEPES-KOH pH 7.5, 200 mM NaCl, 5. (In fluorescence polarisation assays a small probe gives low polarisation when free and higher when bound to something large.)

B1: 18-nt guide RNA/18-nt target DNA (crystal) (DNA:RNA)
RNA: UUACAACCUACUACCUCG
DNA: CGAGGTAGTAGGTTGTAA
modifications: 5'-phosphate on guide
With B1, the binding result in the series with RsAgo delN20 is recorded as “binds”.

B2: guide 5'P-RNA + 70-base target DNA (DNA:RNA)
RNA: UUACAACCUACUACCUCG
DNA: TAAAATCTTAAAGTTATTATTTCTATACGAGGTAGTAGGTTGTAATTATCACAATTTATAGTAGTATTAA
modifications: 5'-phosphate on guide
In the case of B2, in the series with RsAgo delP45-W63, the binding result is listed as “no binding”.

B3: 5'P-RNA/DNA (RR/DD) (DNA:RNA)
RNA: UUACAACCUACUACCUCG
DNA: CGAGGTAGTAGGTTGTAA
modifications: 5'-phosphate on guide
On to B3, for which the binding result in the series with RsAgo WT [1] was “binds”.
As for CUACAACCUACUACCUCG (ssRNA, 5'-phosphate) [5'C-RNA, FAM], the Kd with RsAgo WT [2] came to 67 ± 3.5 nM.
For TTACAACCTACTACCTCG (ssDNA, 5'-phosphate) [5'P-DNA, FAM], in the series with RsAgo WT [2], the Kd worked out at 42.6 ± 3.4 nM.
GUACAACCUACUACCUCG (ssRNA, 5'-phosphate) [5'G-RNA, FAM] yielded a dissociation constant Kd with RsAgo WT [2] of 181 ± 13.3 nM.
Still for that read-out and setting: for AUACAACCUACUACCUCG (ssRNA, 5'-phosphate) [5'A-RNA, FAM] the value was 24.8 ± 1.7 nM.
Regarding UUACAACCUACUACCUCG (ssRNA, 5'-OH) [5'OH-RNA, FAM], binding with RsAgo WT [2] was put at a Kd of 1140 ± 54 nM.

The term Kd denotes the free concentration of one partner at which half of the binding sites on the other are occupied at equilibrium, for simple one-to-one binding. Read a high Kd as weaker binding.
